# Positions count from the first letter of the chain named.
# B1: Ms-15 (antibody, V domains shown)
# VH: EVQLVETGGGLVQPKGSLKLSCAASGFTFNTNAMNWVRQAPGKGLEWVGRIRTKSNNYATYYADSVRDRFTISRYDSQGMLYLQMNNLKTEDTAMYYCVRGGYGIRGDYTMDYWGQGTSVTVSS
# VL: DIVMTQAAPSVPVTPGESVSISCRSSKSLLHSNGNTYLYWFLQRPGQSPQLLIYRMSNLASGVPDRFSGSGSGTAFTLRISRVEAEDVGVYYCMQHLEYPFTFGSGTKLEIK
# notes: Mouse hybridoma antibody; also called mouse-derived anti-CCR8 antibody Ms-15
# B2: Ms-1 (antibody, V domains shown)
# VH: QVQLQQSGAELVRPGASVTLSCKASGYTFTAYEMHWVRQTPVNGLEWIGAIDPKTGVTAYNQKFKDKAIMTADKYSSTAYMDLRSLTSEDSAVYYCTSRAGGRGRFAYWGQGTLVTVSA
# VL: DVVMTQTPLSLPVSLGDQASISCRSSQSLVHSSANTYLHWYLQKPGQSPKVLIYKVSNRFSGVPDRFSGSGSGTDFTLKISRVEAEDLGLYFCSQSTHVPFTFGGGTKLEIK
# notes: Mouse hybridoma antibody; also called mouse-derived anti-CCR8 antibody Ms-1
# B3: Ms-8 (antibody, V domains shown)
# VH: B1 VH with N32Y, A40T, G42E, G49A, Y61S, R67K, G79N, T110A
# VL: B1 VL with S26T, A75T
# notes: Mouse hybridoma antibody; also called mouse-derived anti-CCR8 antibody Ms-8
# B4: Ms-2 (antibody, V domains shown)
# VH: QVQLQQSGAELARPGASVTLSCKASGYTFTDYEMHWVKQTPVRGLEWIGAIDPETGATAYNQKFKGKATLTADKSSNTAYMELRRLTSEDSAVYYCKSRAGGRGRFAYWGQGTLVTVSA
# VL: B2 VL with S14R, A34G, P45S, V51L, L90V, S96T, F101Y
# notes: Mouse hybridoma antibody; also called mouse-derived anti-CCR8 antibody Ms-2
# B5: Hu-15-Z6 (antibody, V domains shown)
# VH: B1 VH with T7S, K15G, K19R, D64E, Y75D, Q78K, G79N, M80S, N87S, S119L
# VL: DIVMTQSPPTLSLSPGERATLSCRSSKSLLHSNGNTYLYWFQQKPGQSPQLLIYRMSNLASGIPDRFSGSGSGTDFTLTISRLEPEDFAVYYCMQHLEYPFTFGQGTKLEIK
# notes: Humanized from CH-15; also called humanized antibody Hu-15-Z6
# B6: Hu-15-Z10 (antibody, V domains shown)
# VH: EVQLVESGGGLVQPGGSLRLSCAASGFTFNTNAMNWVRQAPGKGLEWVGRIRTKSNNYATYYAESVRDRFTISRDDSKNSLYLQMNSLKTEDTAMYYCVRGGYGIRADYTMDYWGQGTLVTVSS
# VL: B5 VL
# notes: Humanized from CH-15; also called humanized antibody Hu-15-Z10
# B7: Hu-15-Z9 (antibody, V domains shown)
# VH: B6 VH with A107G, D108E
# VL: B5 VL
# notes: Humanized from CH-15; also called humanized antibody Hu-15-Z9
# B8: Hu-15-Z8 (antibody, V domains shown)
# VH: B6 VH with A107G
# VL: B5 VL with G34A
# notes: Humanized from CH-15; also called humanized antibody Hu-15-Z8
# B9: Hu-15-Z4 (antibody, V domains shown)
# VH: B6 VH with A107G
# VL: B5 VL with D1E, M4L, P9G, F41Y, S48A, Q50R
# notes: Humanized from CH-15; also called humanized antibody Hu-15-Z4
# B10: Hu-15-Z3 (antibody, V domains shown)
# VH: B6 VH with M95V, V99A, A107G
# VL: B5 VL
# notes: Humanized from CH-15; also called humanized antibody Hu-15-Z3
# B11: Hu-15-Z1 (antibody, V domains shown)
# VH: B6 VH with M95V, V99A, A107G
# VL: B5 VL with D1E, M4L, P9G, F41Y, S48A, Q50R
# notes: Humanized from CH-15; made by the aforementioned method (human IgG framework); also called humanized antibody Hu-15-Z1
# B12: Hu-15-Z2 (antibody, V domains shown)
# VH: B6 VH with M95V, V99A, A107G
# VL: B5 VL with D1E, P9G, Q50R
# notes: Humanized from CH-15; also called humanized antibody Hu-15-Z2
# B13: Hu-15-Z7 (antibody, V domains shown)
# VH: B6 VH with A107G
# VL: B5 VL with N33Q
# notes: Humanized from CH-15; also called humanized antibody Hu-15-Z7
# B14: Hu-15-Z5 (antibody, V domains shown)
# VH: B6 VH with A107G
# VL: B5 VL with D1E, P9G, Q50R
# notes: Humanized from CH-15; also called humanized antibody Hu-15-Z5
# B15: Hu-2-Z5 (antibody, V domains shown)
# VH: QVQLVQSGAEVKKPGASVKVSCKASGYTFTDYEMHWVRQAPGQGLEWMGAIDPETGATAYNQKFKGRVTLTADTSISTAYMELSRLRSDDTVVYYCASRAGGRGRFAYWGQGTLVTVSS
# VL: EVVMTQSPGTLSLSPGERATLSCRSSQSLVHSSGNTYLHWYQQKPGQSPRLLIYKVSNRFSGIPDRFSGSGSGTDFTLTISRLEPEDFAVYFCSQTTHVPYTFGGGTKLELK
# notes: Humanized from CH-2; also called humanized antibody Hu-2-Z5
# B16: Hu-2-Z3 (antibody, V domains shown)
# VH: B15 VH with L70S, A72R, S98R
# VL: B15 VL with E1D, G9L, R50K
# notes: Humanized from CH-2; also called humanized antibody Hu-2-Z3
# B17: Hu-2-Z12 (antibody, V domains shown)
# VH: B15 VH with G42V, Q43R, A97K
# VL: B15 VL with E1D, G9L, R50K
# notes: Humanized from CH-2; also called humanized antibody Hu-2-Z12
# B18: Hu-2-Z9 (antibody, V domains shown)
# VH: B15 VH with A97K
# VL: B15 VL with E1D, G9L, R50K
# notes: Humanized from CH-2; also called humanized antibody Hu-2-Z9
# B19: Hu-2-Z6 (antibody, V domains shown)
# VH: B15 VH
# VL: B15 VL with E1D, G9L, R50K
# notes: Humanized from CH-2; also called humanized antibody Hu-2-Z6
# B20: Hu-2-Z4 (antibody, V domains shown)
# VH: B15 VH
# VL: B15 VL with V2I, M4L, S48A, F92Y
# notes: Humanized from CH-2; also called humanized antibody Hu-2-Z4
# B21: Hu-2-Z1 (antibody, V domains shown)
# VH: B15 VH with L70S, A72R, S98R
# VL: B15 VL with V2I, M4L, S48A, F92Y
# notes: Humanized from CH-2; made by the aforementioned method (human IgG framework); also called humanized antibody Hu-2-Z1
# B22: Hu-2-Z8 (antibody, V domains shown)
# VH: B15 VH with A97K
# VL: B15 VL
# notes: Humanized from CH-2; also called humanized antibody Hu-2-Z8
# B23: Hu-2-Z7 (antibody, V domains shown)
# VH: B15 VH with A97K
# VL: B15 VL with V2I, M4L, S48A, F92Y
# notes: Humanized from CH-2; also called humanized antibody Hu-2-Z7
# B24: Hu-2-Z11 (antibody, V domains shown)
# VH: B15 VH with G42V, Q43R, A97K
# VL: B15 VL
# notes: Humanized from CH-2; also called humanized antibody Hu-2-Z11
# B25: Hu-2-Z2 (antibody, V domains shown)
# VH: B15 VH with L70S, A72R, S98R
# VL: B15 VL
# notes: Humanized from CH-2; also called humanized antibody Hu-2-Z2
# B26: Hu-2-Z10 (antibody, V domains shown)
# VH: B15 VH with G42V, Q43R, A97K
# VL: B15 VL with V2I, M4L, S48A, F92Y
# notes: Humanized from CH-2; also called humanized antibody Hu-2-Z10
# B27: chimeric antibody CH-2 (antibody, V domains shown)
# VH: B4 VH
# VL: B2 VL with S14R, A34G, P45S, V51L, L90V, S96T, F101Y
# notes: Variable domains of Ms-2 in a human IgG framework, expressed in CHO cells
# Target: T1, human CCR8 (chemokine (C-C motif) receptor 8) (human, UniProt P51685 1-355)
# T1 construct: whole, on cells; also called CCR8-CHO-K1 cells; CHOK1-CCR8 cells
# T1 sequence (P51685 whole entry): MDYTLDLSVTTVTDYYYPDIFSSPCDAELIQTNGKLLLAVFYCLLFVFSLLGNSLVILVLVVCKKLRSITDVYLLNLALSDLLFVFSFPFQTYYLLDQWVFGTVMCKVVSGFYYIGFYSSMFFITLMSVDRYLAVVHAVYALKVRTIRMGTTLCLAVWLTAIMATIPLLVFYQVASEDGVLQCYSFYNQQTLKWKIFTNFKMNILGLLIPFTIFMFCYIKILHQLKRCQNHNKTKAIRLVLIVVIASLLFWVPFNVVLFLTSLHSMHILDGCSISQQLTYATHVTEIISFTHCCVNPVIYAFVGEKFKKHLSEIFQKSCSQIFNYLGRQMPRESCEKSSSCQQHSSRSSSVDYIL
# Assay: flow cytometry on CCR8-CHO-K1 cells
# Description: (§1) The antibody to be tested was taken as the initial concentration of 50 μg/mL and diluted 5-fold with 6 gradients. The cells CCR8-CHO-K1 in the incubator were taken out, and the cell suspension was transferred to a 15 mL centrifuge tube, centrifuged, and counted by resuspension in PBS. A blank control group (Blank), a negative control group (NC), an experimental group, a positive control group (positive control BMK derived from the 1K17 sequence of US20210277129) and the irrelevant antibody group were kept. The cell suspension was spread in a 96-well plate according to about 3×10⁵ cells/well. Centrifugation (1000 rpm, 5 min) was performed, followed by washing with PBS, re-centrifugation, and repeated twice to remove media residues. The supernatant was discarded, 100 μL of primary antibody solution and irrelevant antibody solution were added to the experimental group and irrelevant antibody group, respectively, and the cells were resuspended and incubated at room temperature for 1 h. The blank group, and the negative control group were incubated with an equal amount of PBS.
# (§2) After 1 h, PBS was added to wash twice. […] After the supernatant was discarded, 120 μL of PBS was added to resuspend and sequentially flow cytometry was performed to detect the mean fluorescence intensity. […]
row,binding result,Binder
1,binds,B1
2,binds,B2

# Target: T1, human CCR8 (chemokine (C-C motif) …)
# Assay: flow cytometry on CCR8-CHO cells
# Description: as §1, §2
row,binding result,Binder
1,binds,B3
2,binds,B4

# Target: T1, human CCR8 (chemokine (C-C motif) …)
# Assay: flow cytometry on CHOK1-CCR8 cells, steps of Example 6
row,binding result,Binder
1,binds,B5
2,binds,B6
3,binds,B7
4,binds,B8
5,binds,B9
6,binds,B10
7,binds,B11
8,binds,B12
9,binds,B13
10,binds,B14
11,binds,B15
12,binds,B16
13,binds,B17
14,binds,B18
15,binds,B19
16,binds,B20
17,binds,B21
18,binds,B22
19,binds,B23
20,binds,B24
21,binds,B25
22,binds,B26

# Target: T1, human CCR8 (chemokine (C-C motif) …)
# Assay: flow cytometry on CCR8-CHO-K1 cells, PE anti-human IgG Fc secondary
# Description: as §1, with “The supernatant was discarded, 100 μL of primary antibody solution and irrelevant antibody solution were added to the experimental group and irrelevant antibody group, respectively, and the cells were resuspended and incubated at room temperature for 1 h. The blank group, and the negative control group were incubated with an equal amount of PBS.” left out
# as §2
# The binding activity of the chimeric antibodies was detected by FACs method, the secondary antibody was PE F(ab′) 2 sheep anti-human IgG Fc (Biolegend, Cat: 398004), and the assay procedure was the same as Example 6, and the results are shown in FIG. 2.
row,binding result,Binder
1,binds,B27

# — US20250243287A1 (SHENGHE CHINA BIOPHARMACEUTICAL, published 2025)
